First the molecules themselves.
B1: IL330020 IgG1 (antibody, V domains shown)
VH: QVQLVQSGAEVKKPGASVKVSCKASGYTFTSYGISWVRQAPGQGLEWMGWISDYQGYTKYAEKFQGRVTMTTDTSTNTAYMELRSLRSDDTAVYYCARLYSSGWIRQYHFDYWGRGTLVTVSS
VL: SYELTQPPSVSVSPGQTASITCSGDNLKDKYVSWYQQKPGQAPVLVLYQDRKRPSGIPERFSGSNSGNTATLTISGTQAMDEADYYCQAWDSGTAFGGGTKVTVL
notes: Human IgG1, lambda constant
B2: 33_640076-4 IgG1 (antibody, V domains shown)
VH: EVQLLESGGGLVQPGGSLRLSCAASGFTFSSYAMSWVRQAPGKGLEWVSGISAIDQSTYYADSVKGRFTISRDNSKNTLYLQMNSLRAEDTAVYYCARDLWMENWVGGLRYPFGYWGQGTMVTVSS
VL: SYVLTQPPSVSVSPGQTASITCSGERMGDKYAAWYQQKPGQSPVLVIYRDTKRPSGIPERFSGSNSGNTATLTISGTQAMDEADYYCEVKKSDTGVFGGGTKVTVL
notes: IgG1
B3: 33_640087-7 IgG1 (antibody, V domains shown)
VH: B2 VH with D99Q, L100K, W101F, E103Q, N104L, V106G
VL: B2 VL with R26G, E88G, K90I, K91Q, S92D, D93N
notes: IgG1
B4: 33_640201 IgG1 (antibody, V domains shown)
VH: EVQLLESGGGLVQPGGSLRLSCAASGFTFSSYAMSWVRQAPGKGLEWVSSIDAISSSTYYADSVKGRFTISRDNSKNTLYLQMNSLRAEDTAVYYCSRQKFMQLWGGGLRYPFGYWGQGTMVTVSS
VL: B2 VL with R49Q, M80V, E88G, K90L, S92Q
notes: IgG1; also called ZZ1JMY-H09
B5: 33_640084-2 IgG1 (antibody, V domains shown)
VH: B4 VH with T28A, S50A, D52S, A53G, I54S, S55G, S56G, S97A
VL: B2 VL with E88Q, K90W, K91R, S92D, T94S, G95P, V96I
notes: IgG1
B6: 33_640082-6 IgG1 (antibody, V domains shown)
VH: B4 VH with S50G, D52S, A53G, S55D, S56T, S97A
VL: B2 VL with E88G, K90L, S92Q
notes: IgG1
B7: 33_640082-7 IgG1 (antibody, V domains shown)
VH: B4 VH with S50G, D52S, S55D, S56Q, S97A
VL: B2 VL with E88G, K90L, S92Q
notes: IgG1
B8: 33_640086-6 IgG1 (antibody, V domains shown)
VH: B2 VH with A53G, Q56T, L100K, W101F, E103Q, N104L, V106G
VL: B2 VL with K91V, S92K
notes: IgG1
B9: 33_640237-2 IgG1 (antibody, V domains shown)
VH: B2 VH with S52A, A53D, I54D, D55F, Q56T, S63P, E103M, W105Y, V106A
VL: B2 VL with E88G, K90L, S92Q

Residue numbers refer to the chain shown, from its start.

The target of one assay is T1, Human IL-33 Flag®His (human).
T1 chain: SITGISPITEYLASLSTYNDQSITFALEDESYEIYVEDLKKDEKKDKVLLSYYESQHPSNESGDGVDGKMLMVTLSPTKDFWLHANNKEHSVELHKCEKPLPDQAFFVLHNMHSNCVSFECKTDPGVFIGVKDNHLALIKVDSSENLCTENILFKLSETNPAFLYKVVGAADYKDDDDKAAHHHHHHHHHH
Description: cell-based or functional assay.
In the case of B1, the “IC50, human ST2 transfected HeLa NFkB luciferase reporter assay” value is 147 nM.

Another assay deals with T2, His10/Avi Human IL33-01 (human).
T2 chain: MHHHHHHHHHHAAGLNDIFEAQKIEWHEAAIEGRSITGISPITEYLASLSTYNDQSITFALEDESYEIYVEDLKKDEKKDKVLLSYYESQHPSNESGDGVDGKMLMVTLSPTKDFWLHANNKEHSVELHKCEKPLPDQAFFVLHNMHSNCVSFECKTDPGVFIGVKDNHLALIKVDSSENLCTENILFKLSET
The experiment in a line: cell-based or functional assay.
With B2, the “IC50, Huvec IL-8 assay vs. His Avi IL-33” value was found to be 0.032 nM.

Consider B3, for which the “IC50, Huvec IL-8 assay vs. His Avi IL-33” value was 0.025 nM.

Regarding B4, the “IC50, Huvec IL-8 assay vs. His Avi IL-33” value came to 0.046 nM.

Turning to B5, the “IC50, Huvec IL-8 assay vs. His Avi IL-33” value turned out to be 0.036 nM.

For B6, the “IC50, Huvec IL-8 assay vs. His Avi IL-33” value was determined as 0.03 nM.

B7: the “IC50, Huvec IL-8 assay vs. His Avi IL-33” value stood at 0.031 nM.

For the molecule B8, the “IC50, Huvec IL-8 assay vs. His Avi IL-33” value was 0.026 nM.

The target of a further assay is T3, Full-length human IL-33 (amino acids 1-270), HEK293-EBNA cell lysate (human, UniProt O95760 1-270).
T3 sequence (looked up): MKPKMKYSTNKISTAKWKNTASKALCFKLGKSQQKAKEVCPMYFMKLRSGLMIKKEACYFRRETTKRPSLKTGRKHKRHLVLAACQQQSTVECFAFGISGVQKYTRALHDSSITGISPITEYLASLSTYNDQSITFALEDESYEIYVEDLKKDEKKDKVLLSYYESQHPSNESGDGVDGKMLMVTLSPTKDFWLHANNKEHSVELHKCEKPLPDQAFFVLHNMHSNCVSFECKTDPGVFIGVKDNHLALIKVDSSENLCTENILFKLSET
Description: cell-based or functional assay.
For the molecule B2, the “IC50, Huvec IL-8 assay vs. full length IL-33 cell lysate” value was determined as 0.095 nM.

Turning to B3, the “IC50, Huvec IL-8 assay vs. full length IL-33 cell lysate” value was 0.073 nM.

Take B4: the “IC50, Huvec IL-8 assay vs. full length IL-33 cell lysate” value worked out at 0.101 nM.

On to B5, for which the “IC50, Huvec IL-8 assay vs. full length IL-33 cell lysate” value is 0.132 nM.

For B6, the “IC50, Huvec IL-8 assay vs. full length IL-33 cell lysate” value stood at 0.097 nM.

As for B7, the “IC50, Huvec IL-8 assay vs. full length IL-33 cell lysate” value stood at 0.095 nM.

As for B8, the “IC50, Huvec IL-8 assay vs. full length IL-33 cell lysate” value worked out at 0.081 nM.

The target in another assay is T2, His10/Avi Human IL33-01. Description: cell-based or functional assay. This is another data set of the same source.
Take B9: the “IC50 (nM) vs. His Avi IL-33, Huvec IL-8 assay” value was found to be 0.105 nM.

Consider B3, for which the “IC50 (nM) vs. His Avi IL-33, Huvec IL-8 assay” value came out at 0.041 nM.

The next assay addresses T1, Human IL-33 Flag®His. Description: HTRF competition, IgG titrated against biotinylated human ST2-Fc. As to the method: The ability of anti-IL-33 antibodies to inhibit the binding of FLAG®-His tagged IL-33 to the ST2 receptor was assessed in a biochemical HTRF® (Homogeneous Time-Resolved Fluorescence, Cisbio International) competition assay, the principles of which are described above.
Activity of purified IgG preparations were determined by competing a dilution series of the purified IgG against biotinylated human or mouse ST2.Fc for binding to FLAG® His-tagged human, cynomolgus or mouse IL-33.
Purified or unpurified anti-IL-33 antibody samples were tested for inhibition of FLAG®-His tagged IL-33 binding ST2-Fc by adding 10 microlitres of each dilution of antibody test sample to a 384 well low volume assay plate (Costar 3676). Next, a solution containing 4 nM biotinylated human or mouse ST2-Fc and 20 nM streptavidin XL665 detection (Cisbio International, 611SAXLB) was prepared and 5 microlitres of the mix added to the assay plate. This was followed by the addition of 5 microlitres of a solution containing 1.2 nM FLAG®-His tagged human, cynomolgus or mouse IL-33 combined with 1.72 nM anti-FLAG® cryptate detection (Cisbio International, 61FG2KLB). All dilutions were performed in assay buffer comprised of Dulbeccos PBS (Invitrogen, 14190185) containing 0.8 M potassium fluoride (BDH 103444T) and 0.1% BSA (Sigma A9576). Assay plates were incubated for 2 hour at room temperature followed by 16 hour at 4° C. before reading time resolved fluorescence at 620 nm and 665 nm emission wavelengths using an EnVision plate reader (Perkin Elmer).
A general note: TR-FRET usually uses a lanthanide donor and a delayed reading to cut background.
As for B1, the half-inhibitory concentration (IC50) amounted to 40 nM.

For the next assay, the target named is T2, His10/Avi Human IL33-01. The experiment in a line: HTRF epitope competition, IgG titrated; competitor DyLight labelled 33_640117 IgG; 1 hour. As to the method:
(§1) As the epitope competition assay utilising 33_640027 reached its limit of sensitivity, an assay using 33_640117 was used for testing purified scFv samples. The assay was essentially as described for the 33v20064 competition assay with the following modifications: 2.5 nM DyLight labelled 33_640117 was prepared and 2.5 microlitres added to the assay plates. This was followed by the addition of 2.5 microlitres of a solution containing 0.12 nM biotinylated human IL-33-01 combined with 0.75 nM streptavidin cryptate detection (Cisbio International, 610SAKLB) for the human assay or a solution containing 0.24 nM biotinylated cynomolgus IL-33 combined with 1.5 nM streptavidin cryptate detection (Cisbio International, 610SAKLB) for the cynomolgus assay. Fluorescence was read after one hour and overnight incubation.
(§2) The ability of anti-IL-33 antibodies to inhibit the binding of biotinylated His Avi human IL-33 or cynomolgus His Avi IL-33 to the DyLight labelled 33_640117 IgG was assessed in a biochemical HTRF® (Homogeneous Time-Resolved Fluorescence, Cisbio International) competition assays as described above.
The molecule B2 came in with a concentration for half-maximal inhibition (IC50) of 0.1 nM.

On to B3, for which the IC50 was found to be 0.1 nM.

Consider B4, for which the concentration for half-maximal inhibition (IC50) turned out to be 0.2 nM.

As for B5, the IC50 was determined as 0.3 nM.

As for B6, the 50% inhibitory concentration (IC50) came to 0.1 nM.

Molecule B7 had a 50% inhibitory concentration (IC50) of 0.1 nM.

The molecule B8 displayed an IC50 of 0.1 nM.

The target of a further assay is T4, His10/Avi Cyno IL-33 (cynomolgus monkey).
T4 construct: also called Cynomolgus 10His Avitag IL-33; biotinylated His Avi cynomolgus IL-33
T4 chain: T2 chain with E77K, N94S, H118Q, M146R, H147S, S148F, S177Y, C182G, T183S, T193I
The assay is described as above. As to the method:
as §1, §2
As to B2, the IC50 was found to be 0.6 nM.

As for B3, the IC50 came to 0.2 nM.

Molecule B4 displayed a concentration for half-maximal inhibition (IC50) of 0.3 nM.

For B5, the IC50 is 0.8 nM.

Take B6: the IC50 is 0.2 nM.

For the molecule B7, the half-inhibitory concentration (IC50) turned out to be 0.2 nM.

For B8, the IC50 came to 0.2 nM.

The next assay has as its target T2, His10/Avi Human IL33-01. Description: HTRF epitope competition, IgG titrated; competitor DyLight labelled 33_640117 IgG; overnight. As to the method:
as §1, §2
The molecule B2 had an IC50 of 0.1 nM.

The molecule B3 had an IC50 of 0.1 nM.

In the case of B4, the IC50 is 0.2 nM.

In the case of B5, the IC50 was determined as 0.3 nM.

B6 gave an IC50 of 0.1 nM.

Regarding B7, the concentration for half-maximal inhibition (IC50) was 0.1 nM.

In turn, B8 showed an IC50 of 0.1 nM.

A word on the IC50: it is the concentration at which inhibition is half-maximal. A high value points to lower potency.

Values taken from US20200353078A1 (AstraZeneca / MedImmune, published 2020).
